Reference: patent US20250011363A1, “OPTIMIZED SHORTENED PEPTIDE THAT BINDS TO ACETYLCHOLINE RECEPTOR, AND USE THEREOF” (SKINMED CO., LTD., priority 2021, published 2025)

These substances were tested against acetylcholine receptor (Homo sapiens, UniProt P02708) (assay: SPR binding affinity (RU) of optimized 5mer/6mer/7mer peptides, Examples 6-7). Details: SPR, Resonance Units; peptides tested at 10 μM; 6mer-1 Bottom sequence (Table 11).
Summary of the method: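 Single-concentration screen: 10 μM peptide, SPR detection, binding expressed as RU.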

Sequence of acetylcholine receptor (P02708 21-457): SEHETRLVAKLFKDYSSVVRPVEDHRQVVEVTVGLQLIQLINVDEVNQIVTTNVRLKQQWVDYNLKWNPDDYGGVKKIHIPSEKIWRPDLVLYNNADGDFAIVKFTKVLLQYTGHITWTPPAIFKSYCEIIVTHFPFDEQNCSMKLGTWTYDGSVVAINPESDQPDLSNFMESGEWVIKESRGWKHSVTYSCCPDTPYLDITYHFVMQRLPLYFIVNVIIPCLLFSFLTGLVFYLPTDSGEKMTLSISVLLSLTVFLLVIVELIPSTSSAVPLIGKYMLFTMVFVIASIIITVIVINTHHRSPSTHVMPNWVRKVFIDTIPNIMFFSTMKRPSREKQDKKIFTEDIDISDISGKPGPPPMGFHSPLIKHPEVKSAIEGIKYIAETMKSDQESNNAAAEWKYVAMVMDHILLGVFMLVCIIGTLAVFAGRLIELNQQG

Substance	Binding affinity [Ru]
6mer-1-601 (KKEWNK)	27
6mer-1-602 (RKAEKR)	18
6mer-1-603 (KRPHFK)	13
6mer-1-604 (KKFTKK)	24
6mer-1-605 (RKNADR)	20
6mer-1-606 (RREWFR)	15
6mer-1-607 (KKDHFR)	22
6mer-1-608 (KKACMR)	18
6mer-1-609 (RKNPVR)	24
6mer-1-610 (KKHHER)	27
6mer-1-611 (KKNCHK)	23
6mer-1-612 (KRIMER)	17
6mer-1-613 (KRIMKK)	14
6mer-1-614 (KKEEER)	12
6mer-1-615 (KKTSER)	18
6mer-1-616 (KKNTIK)	31
6mer-1-617 (KRHNVR)	31
6mer-1-618 (RKCHVK)	19
6mer-1-619 (KKIDKR)	23
6mer-1-620 (RRKTAK)	11
6mer-1-621 (RRMAGK)	30
6mer-1-622 (KKCPNR)	18
6mer-1-623 (RRTDWR)	21
6mer-1-624 (KKPPAK)	30
6mer-1-625 (KREDKK)	33

Substance	Binding affinity [Ru]
6mer-1-626 (KRPDNR)	27
6mer-1-627 (RRTWWR)	29
6mer-1-628 (RRENEK)	23
6mer-1-629 (RKMDAK)	11
6mer-1-630 (KRMEPR)	14
6mer-1-631 (RRYSDR)	13
6mer-1-632 (RKDTAR)	17
6mer-1-633 (RKIDAK)	16
6mer-1-634 (KKNTMR)	12
6mer-1-635 (KKTTWK)	33
6mer-1-636 (RKYKDR)	27
6mer-1-637 (RRFEFK)	33
6mer-1-638 (KKESHR)	20
6mer-1-639 (KRPNVR)	24
6mer-1-640 (RRNCWR)	25
6mer-1-641 (RREMFK)	21
6mer-1-642 (KKYNGK)	24
6mer-1-643 (KRYSMR)	31
6mer-1-644 (RKTWFR)	31
6mer-1-645 (RRTTIR)	33
6mer-1-646 (RRCTGK)	33
6mer-1-647 (RKYNVR)	14
6mer-1-648 (KKFWEK)	17
6mer-1-649 (RRIAGK)	32
6mer-1-650 (RRCNNR)	18

Substance	Binding affinity [Ru]
6mer-1-651 (KRICWK)	27
6mer-1-652 (RRPEVK)	26
6mer-1-653 (KRMTHR)	15
6mer-1-654 (KRMNDR)	23
6mer-1-655 (RKNMFR)	12
6mer-1-656 (RRPTHK)	28
6mer-1-657 (RRCTVR)	17
6mer-1-658 (RKKEMK)	20
6mer-1-659 (KKPSKR)	29
6mer-1-660 (KKYHVK)	31
6mer-1-661 (RKPKWR)	14
6mer-1-662 (KKMTER)	20
6mer-1-663 (KKFKDR)	26
6mer-1-664 (KRDHIK)	26
6mer-1-665 (KKCDGK)	21
6mer-1-666 (KKAANK)	18
6mer-1-667 (KRDSPK)	32
6mer-1-668 (RKATVK)	17
6mer-1-669 (KRNMAK)	23
6mer-1-670 (KKDWNR)	11
6mer-1-671 (KKNMVR)	11
6mer-1-672 (RKMEIR)	17
6mer-1-673 (RRAMPK)	16
6mer-1-674 (RKHPKK)	32
6mer-1-675 (KKIWKR)	21

Substance	Binding affinity [Ru]
6mer-1-676 (KRCPWR)	16
6mer-1-677 (KKCCFR)	22
6mer-1-678 (KRMAAK)	25
6mer-1-679 (KKAEER)	30
6mer-1-680 (KKDPPR)	27
6mer-1-681 (KKEWKK)	32
6mer-1-682 (KKKDIR)	30
6mer-1-683 (KRDSMR)	16
6mer-1-684 (KRNNDR)	20
6mer-1-685 (RRESWK)	14
6mer-1-686 (KKYEVR)	25
6mer-1-687 (RREWIK)	23
6mer-1-688 (RKDEVR)	33
6mer-1-689 (KRCPVR)	11
6mer-1-690 (KREAER)	21
6mer-1-691 (RKPKAR)	31
6mer-1-692 (RKNTHK)	22
6mer-1-693 (RKIDMK)	22
6mer-1-694 (RKYTKR)	27
6mer-1-695 (KRADVK)	13
6mer-1-696 (KKHCNR)	18
6mer-1-697 (RRPTNR)	13
6mer-1-698 (KRFNHK)	27
6mer-1-699 (RRTTVR)	28
6mer-1-700 (RKKMWK)	19

Substance	Binding affinity [Ru]
6mer-1-701 (RRKTWR)	13
6mer-1-702 (KRDWVK)	31
6mer-1-703 (KKFHPR)	18
6mer-1-704 (RRMCER)	16
6mer-1-705 (KRTEWR)	12
6mer-1-706 (KRMKDR)	29
6mer-1-707 (KRFWPK)	26
6mer-1-708 (KKKHEK)	14
6mer-1-709 (KKFKPK)	29
6mer-1-710 (KKMHHR)	21
6mer-1-711 (RRATHR)	19
6mer-1-712 (KKPSNK)	24
6mer-1-713 (KKATNK)	20
6mer-1-714 (KRTSFK)	25
6mer-1-715 (KRMMVK)	18
6mer-1-716 (RRMPFK)	11
6mer-1-717 (KRHEDR)	22
6mer-1-718 (RKFKAR)	23
6mer-1-719 (KKDAEK)	27
6mer-1-720 (RRKHKR)	11
6mer-1-721 (RKAMEK)	22
6mer-1-722 (RRNKVR)	12
6mer-1-723 (RKMPAK)	33
6mer-1-724 (KRPKNK)	19
6mer-1-725 (KKDKPK)	32

Substance	Binding affinity [Ru]
6mer-1-726 (KKHSMK)	33
6mer-1-727 (RKANGK)	29
6mer-1-728 (RRDNAR)	23
6mer-1-729 (KKKSGK)	23
6mer-1-730 (KRATFR)	13
6mer-1-731 (RRIKAR)	18
6mer-1-732 (RRAAVR)	26
6mer-1-733 (KKKMFK)	21
6mer-1-734 (RRTHER)	21
6mer-1-735 (RKDKER)	19
6mer-1-736 (KKATDK)	15
6mer-1-737 (RRKNAR)	27
6mer-1-738 (RKYHHR)	25
6mer-1-739 (RKCCEK)	32
6mer-1-740 (RKDNKR)	26
6mer-1-741 (RKEAGR)	24
6mer-1-742 (RRFHWR)	14
6mer-1-743 (KKTMVR)	14
6mer-1-744 (RKHEIK)	31
6mer-1-745 (KKTMEK)	11
6mer-1-746 (RKMSVK)	24
6mer-1-747 (KKTMDR)	24
6mer-1-748 (RKHNGR)	24
6mer-1-749 (RKPHWR)	33
6mer-1-750 (KRENIK)	33

Same assay, conditions: SPR, peptides tested at 10 μM; 6mer-1 Top sequence

Substance	Binding affinity [Ru]
6mer-1-590 (RKGVTK)	142
6mer-1-591 (KKRLYR)	147
6mer-1-592 (RRWLSK)	135
6mer-1-593 (RKVYRK)	148
6mer-1-594 (KRQLQR)	121
6mer-1-595 (KKSLCK)	121
6mer-1-596 (RKGVLR)	148
6mer-1-597 (KRGFYK)	148
6mer-1-598 (RKWLSK)	142
6mer-1-599 (KKLYQR)	124
6mer-1-600 (KRGYCR)	139
